Results on two molecules are retold here after US20240350597A1, “PROTEASE INHIBITORS” (University College Dublin, priority 2023, published 2024).

Assay [1] has as its target T1, Cathepsin L (CatL) (Homo sapiens, UniProt P07711).
T1 construct: gift: Dr Matej Vizovišek, Jozef Stefan Institute, Slovenia
In words: Protease inhibition assay, fluorogenic substrate cleavage, cathepsin L. The format is biochemical. Particulars: excess of serpin over protease, 2 min incubation, substrate Z-FR-AMC. Here is the method:
By monitoring the linear rate of cleavage of fluorogenic substrates, protease specificity of purified proteins was assessed. CatL was gifted by Dr Matej Vizovišek, Jozef Stefan Institute, Slovenia. TMPRSS2 was obtained from Cusabio Technology and furin from BioLegend.
Proteases were incubated with a 1:5 molar excess of serpin and residual activity was determined by cleavage of fluorescent substrates. All assays were carried out at room temperature in 96-well plates in a total volume of 100 μL. Residual proteolytic activity was measured using a SpectraMax M3 Microplate Reader (Molecular Devices, Inc), using the appropriate buffer and synthetic fluorogenic peptide substrate: Cathepsin L, Z-FR-AMC (10 μM), 50 mM Na-Acetate, 100 mM NaCl, 1 mM EDTA, pH 5.5; Chymotrypsin, Z-AAPF-AMC (5 μM), PBS, 1 mg/ml BSA; Elastase, Met-O-Suc-AAPV-AMC (10 μM), 50 mM Tris, 120 mM NaCl, pH 8.0, 1 mg/ml BSA; Furin, Boc-RVRR-AMC (50 μM) 20 mM Tris, 1 mM CaCl2), 0.5% Brij-35, pH 9; TMPRSS2, Boc-QAR-AMC (80 μM), PBS; Trypsin, Z-FR-AMC (10 μM), 50 mM Tris, 0.2 mM DTT, 1 mg/ml BSA. The excitation and emission wavelengths used were 380 nm and 460 nm respectively. All assays were performed in triplicate.

The test system of assay [2] is SARS-CoV-2 Spike pseudoparticles. The format is cell-based.
Assay [3] relates to Omicron BA.5 SARS-CoV-2. The format is cell-based.
The target in assay [4] is T2, TMPRSS2 (Homo sapiens, UniProt O15393). The format is biochemical. Also noted: purchased Cusabio Technology.
T2 sequence (O15393 whole entry): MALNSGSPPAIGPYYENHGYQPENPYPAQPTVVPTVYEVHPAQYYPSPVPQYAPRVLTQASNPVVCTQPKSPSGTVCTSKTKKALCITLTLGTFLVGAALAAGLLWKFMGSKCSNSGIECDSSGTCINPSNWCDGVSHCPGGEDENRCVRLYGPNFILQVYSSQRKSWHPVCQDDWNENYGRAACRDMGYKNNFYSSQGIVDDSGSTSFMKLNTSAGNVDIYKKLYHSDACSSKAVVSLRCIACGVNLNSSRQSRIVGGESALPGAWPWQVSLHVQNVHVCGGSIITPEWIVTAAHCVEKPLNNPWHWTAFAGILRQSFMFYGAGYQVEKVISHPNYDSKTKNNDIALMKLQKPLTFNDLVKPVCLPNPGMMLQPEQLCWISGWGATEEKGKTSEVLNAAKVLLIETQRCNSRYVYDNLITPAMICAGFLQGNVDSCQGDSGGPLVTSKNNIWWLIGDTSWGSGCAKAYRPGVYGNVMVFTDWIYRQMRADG
Assay [5] concerns the target T2, TMPRSS2. Put plainly: Kinetic analysis of TMPRSS2 inhibition under pseudo first-order conditions. The conditions noted are these: room temperature, TMPRSS2 0.1 μM. The format is biochemical. More on the design: purchased Cusabio Technology. Here is the method: For kinetic analysis of TMPRSS2 inhibition, second order inhibition rate constants were determined under pseudo first-order conditions using a range of serpin concentrations, and with TMPRSS2 buffer and substrate detailed above. Reactions were performed at room temperature and residual activity was determined at intervals over a 10 min incubation with a molar excess of serpin over protease. Concentration ranges were 0.12 to 0.44 μM for B3-TMP and 1.0 to 4 μM for A1AT. The apparent first order rate constant kobs for each concentration was calculated from the slope of the natural log of residual activity over time (−kobs). These values were plotted against inhibitor concentration and linear regression analysis of this plot gave the second order inhibition rate constant k2, with standard error determined.

“Also recorded” adds a separate entry of the source. Where two headings read alike, the source gives them in different places.

T1 sequence (P07711 114-333): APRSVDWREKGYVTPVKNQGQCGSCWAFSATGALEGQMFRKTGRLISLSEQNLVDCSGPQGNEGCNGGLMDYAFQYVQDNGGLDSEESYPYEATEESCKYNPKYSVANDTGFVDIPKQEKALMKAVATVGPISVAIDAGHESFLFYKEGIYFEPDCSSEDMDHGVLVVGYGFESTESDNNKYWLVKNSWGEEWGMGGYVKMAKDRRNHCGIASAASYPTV

B1: B3-TMP: SerpinB3 variant with RCL residues 350 to 354 (P4 to P1′) replaced by IQFRV to inhibit TMPRSS2; SEQ ID No. 6 (protein)
chain: MNSLSEANTKFMFDLFQQFRKSKENNIFYSPISITSALGMVLLGAKDNTAQQIKKVLHFDQVTENTTGKAATYHVDRSGNVHHQFQKLLTEFNKSTDAYELKIANKLFGEKTYLFLQEYLDAIKKFYQTSVESVDFANAPEESRKKINSWVESQTNEKIKNLIPEGNIGSNTTLVLVNAIYFKGQWEKKFNKEDTKEEKFWPNKNTYKSIQMMRQYTSFHFASLEDVQAKVLEIPYKGKDLSMIVLLPNEIDGLQKLEEKLTAEKLMEWTSLQNMRETRVDLHLPRFKVEESYDLKDTLRTMGMVDIFNGDADLSGMTGSRGLVLSGVLHKAFVEVTEEGAEAAAATAVIQFRVSPTSTNEEFHCNHPFLFFIRQNKTNSILFYGRFSSP
With B1, in assay [1], the CatL inhibition was 81%. Further, the “inhibition of pseudoparticle entry (in words)” value in assay [2] (6.25 μM to 50 μM, A549-ACE2-TMPRSS2 cells) is “reduce SARS-CoV-2 (D614G) pseudoparticle entry”. The “inhibition of pseudoparticle entry” value in assay [2] (12.5 μM, A549-ACE2-TMPRSS2 cells) is 70%; in assay [2] (50 µM) it was 90%. Further, the “inhibition of SARS-CoV-2 Omicron BA.5 infection (in words)” value in assay [3] is “greater inhibitor for both viral strains than WT-SerpinB3; also recorded: inhibit Omicron BA.5 infection to a greater extent than the B3-WT”. Besides, in assay [4], the “selectivity for TMPRSS2 versus elastase, trypsin, chymotrypsin (in words)” value is reported as “better selectivity for TMPRSS2 than A1AT”. Besides, the “second order inhibition rate constant k2 of TMPRSS2 inhibition” value in assay [5] was “(9±1.1)×10^3 M^−1 s^−1”.

B2: B3-WT: Wild type recombinant SerpinB3 (SCCA-1), 44.5 kDa cross-class inhibitor of cysteine proteases including CatL; SEQ ID No. 5 (protein, listed as Homo sapiens)
chain: MNSLSEANTKFMFDLFQQFRKSKENNIFYSPISITSALGMVLLGAKDNTAQQIKKVLHFDQVTENTTGKAATYHVDRSGNVHHQFQKLLTEFNKSTDAYELKIANKLFGEKTYLFLQEYLDAIKKFYQTSVESVDFANAPEESRKKINSWVESQTNEKIKNLIPEGNIGSNTTLVLVNAIYFKGQWEKKFNKEDTKEEKFWPNKNTYKSIQMMRQYTSFHFASLEDVQAKVLEIPYKGKDLSMIVLLPNEIDGLQKLEEKLTAEKLMEWTSLQNMRETRVDLHLPRFKVEESYDLKDTLRTMGMVDIFNGDADLSGMTGSRGLVLSGVLHKAFVEVTEEGAEAAAATAVVGFGSSPTSTNEEFHCNHPFLFFIRQNKTNSILFYGRFSSP
As for B2, the CatL inhibition in assay [1] came to 95%. For the same molecule, the “inhibition of SARS-CoV-2 Omicron BA.5 infection (in words)” value in assay [3] is “reductions in SARS-CoV-2 infection”.
